Reference: a protein production outcome set (Wang et al. 2014)

Experiment: label from the status in PepcDB records

Sequence | protein production
MSPRSIAMCGRCGIRARHSVAPDCCLSVRQATNKCPAVEHHSHGGRRPCTANGGVAFDRFVMTNRFSPRARSTRIVSKVVWRKRSGRDDENKKTRGEHDMSASVQSALSGLVLAAAVAMPALADGLKDEIAPTGKLRVAIAISPAGGAFWSTRTETGYAGVPVDLGKEMAAQLGVGVEYVVHQNSGQITDAASKGTWDVTWLPKDPERESKMMFGPIYEVADATYIVKAGSNVTSFASLDQPGIKVAAVNATTTMRGAVAHLRNAEVTGYQTYDEIFGLLKSGEIDAFALSRDQLNKMAQKIPGTKVLDETFKKTVTAVAVPLGHSLALTFVTKFMNEATINGTLRKAYDNNGLKDSPIRTE | failed
MSVPAIAPRRKRLADGLSVTQKVFVRSRNGGATKIVREHYLRSDIPCLSRSCTKCPQIVVPDAQNELPKFILSDSPLELSAPIGKHYVVLDTNVVLQAIDLLENPNCFFDVIVPQIVLDEVRNKSYPVYTRLRTLCRDSDDHKRFIVFHNEFSEHTFVERLPNETINDRNDRAIRKTCQWYSEHLKPYDINVVLVTNDRLNREAATKEVESNIITKSLVQYIELLPNADDIRDSIPQMDSFDKDLERDTFSDFTFPEYYSTARVMGGLKNGVLYQGNIQISEYNFLEGSVSLPRFSKPVLIVGQKNLNRAFNGDQVIVELLPQSEWKAPSSIVLDSEHFDVNDNPDIEAGDDDDNNESSSNTTVISDKQRRLLAKDAMIAQRSKKIQPTAKVVYIQRRSWRQYVGQLAPSSVDPQSSSTQNVFVILMDKCLPKVRIRTRRAAELLDKRIVISIDSWPTTHKYPLGHFVRDLGTIESAQAETEALLLEHDVEYRPFSKKVLECLPAEGHDWKAPTKLDDPEAVSKDPLLTKRKDLRDKLICSIDPPGCVDIDDALHAKKLPNGNWEVGVHIADVTHFVKPGTALDAEGAARGTSVYLVDKRIDMLPMLLGTDLCSLKPYVDRFAFSVIWELDDSANIVNVNFMKSVIRSREAFSYEQAQLRIDDKTQNDELTMGMRALLKLSVKLKQKRLEAGALNLASPEVKVHMDSETSDPNEVEIKKLLATNSLVEEFMLLANISVARKIYDAFPQTAMLRRHAAPPSTNFEILNEMLNTRKNMSISLESSKALADSLDRCVDPEDPYFNTLVRIMSTRCMMAAQYFYSGAYSYPDFRHYGLAVDIYTHFTSPIRRYCDVVAHRQLAGAIGYEPLSLTHRDKNKMDMICRNINRKHRNAQFAGRASIEYYVGQVMRNNESTETGYVIKVFNNGIVVLVPKFGVEGLIRLDNLTEDPNSAAFDEVEYKLTFVPTNSDKPRDVYVFDKVEVQVRSVMDPITSKRKAELLLK | failed
MNESVDTDEATTPLVSAIIPTYGRNERLSSAIQSVLEQTYDNIELFVVDDASPTPVRETLDSFDPTVENSFRILRHDENQGANAARNTGIRASDGRYVAFLDDDDQWDETKITKQVQAFQESDSETGVVYTGVRKDGPEGTTVSTPVASGDVMKDLLTGTNFGQFSSVMVDTTVIETAGLPDERLPAWQDREWFFRLAQHTHFRPVRETLTYRQTGLPGSITKKYEQKRDVAYPMLISKHDWVAAEYGIYYERMFKATMRRSLARSAVRADRYKEARKYFLLSALANPLYWPVYPHLFASLGGKWSYESIASLRQQVTNGPASGTLEHHHHHH | failed
MNTRAPAVEARQLIKTYPGDVTALSGMDITVEPGTVFGLLGPNGAGKSTTVKILTTLARPDSGTATVAGHDVLRHPDRVRRAIGVVAQSSGADPVATGRENLRLQGRLHGLKGAGLSRRVAELLDRFKLADAAGRQVKGYSGGMRRRLDVALGLVHRPEVLFLDEPTTGLDPEARTAMWDEIARLAGDEGLTILLTTHYLEEADRLAERIAIVDRGRVVVEGTPDGLKGELRGDAIHLELREAVGQAGRTLLKGSLGGVPGVHEVLFDDAQGRRVSVRADDGAAAMPALLGALERAGVGVAAATVARPSLDDVYLRHAGRRYSEAEAEGADSLALAGATGGTRLEHHHHHH | failed
AQELAHKINHIVASRPATAAMLQEIAHLVGTATNVDCCCLVTVTNEESTETTTANWCSDEFLGVPLSNEMFSTERFLMELPVLQCAVEPRNIDEISIIRNSLVVGCQHLPLPIKAVLAISTRFGGKTNGVISLIKFQSHDWDDSAKNILKTIEASCAIAFSQLTQAQLISSQQQHLQ | failed
MKFSKLADQVWGEEPDDQVRSFVFMSNLDAQETANTMDVSVSVERIHADLCGNTELASELHYTPDEWDEAQGWVKINYPLIDDTASASLDVVLDATFQPLPGQPFEGEALTLIDALLHHAENVAASNPWKRTTFHTAHMHPPGSNADCDYCLVLQRRGYVKAHEEIQQTIPLPSGDWSAGEFTVVDVEGTAFPSALIPSIVELQHRAALDVPHGNLSVAPAQWDEHRLAQQSERILKTGTKLFTVLFAEGSTVAAMSSIAIPPGSNPDIAEQGLTIVHPDFRGRGLGTAVKLAGLSLLSRCHPEIQRVATSNAVDNHAMLAINRSIGATEIARTTLWEKKL | failed
MPKTLIILAHPNISQSTVHKHWSDAVRQHTDRFTVHELYAVYPQGKIDVAAEQKLIETHDSLVWQFPIYWFNCPPLLKQWLDEVLTYGWAYGSKGKALKGRKIALAVSLGAPAADYRADGAVGCSVAEVLRPFELTAKYCNADYRPPFTFHTIDSNAGYSEAARQEVERSARDYLAWLDALQQTLEHHHHHH | not failed
MPPSTLGLTPPFDATLLTTRPPCSRRHISRSPGARRPSPGLLTCLQPNVCPRARSAFLAISNGSRQQSGPARADAFHPVSISPFYFYSDSYEDVFMPITTKLKAVSLGVSLALAGLLVGCNQNDSDPLVKDDAYYRGQAEAMVAKLTLGEKLDLLSGPGYGSANGAINVKQDVPGVAGYINGVLRSADGIDIPALKLADGPAGVRINANRDGDSASYYATAWPIGSLLASSWDVKLVKAVGEAMGDEVRQYGVDILLAPGMNIQRNPLNGRNFEYYSEDPLLTGKIGAAMVNGVESNGVGTTIKHYFGNNSETNRNQINDIGEPRTFREIYLRGFQIAVDEAQPWAVMTSYNKVNGTYVNERRDAVTDLLRGEWKFDGLVMSDWFAGDVANNAYKQVLAGQDLIEPGNVKEQLQQSIEHGDLDEAKVNEAAIHILTQVMKSPSYNQLAISNSPDLIAHAKLARQAGAESMVLLRNDAAALPLAASSTLASFGINQINTYKGGTGSGDVNAASTTTIAQGLAARFPVNEALQSYYRDFYENNKVYHEGQFGAKGYYTCAEAPISGDLAALIANAATTQQAAVISIGRQAGEGADRSSGKGDYLLGDDERALIDAVSSAFHAQGKKVVVVLNVNGVIDTAQWSDKVDGILLAYMAGQETGHAVADVLSGAVNPSGKLAQSFPHSYASVPSAGTFPGEDTDGDGEPDDLYYNEGIYVGYRYYSTFEQAVSYPFGFGLSYTSFSYTSPAIASNTLEGGSAGNLVLTATITNTGAVAGKEAAQVYVTAPEVKLKKPLIELKAFAKTAQLAPGASEQLSFTIPASILASFDEASNQWIVEPGRYSAYISPSSDVSASTPVSFTVSKEIVVSNTTPGALALPAGVDPASVTTITR | failed
MQECTNVQVSKMMLSAPQHLVGGSVSEITPNRDLSLDSMHTSQVKQNIRALWTALVLLSVFFCIELSAGIWSHSLSLLADAEHILSDVAALGLALIASWLSQSISQRTIFGRYKLEVLAALINGISLACIACWIVREALVRLQSPTTEILGVPMLTTALIGVGVNSFNALCLHKCSHKDLNIRGALLHLIADLASSVGAVLAAIAIIWLNWTWADGVISLVVAMLIASFAAYLLIQSVQCLRGQIADISDIACMCPPQSEVCVDRQQAEKLLFPTLEELVQ | failed
MDKPILKDSMKLFEALGTIKSRSMFGGFGLFADETMFALVVNNQLHIRADQQTSSDFETQGLKPYVYKKRGFPVVTKYYAISSELWESSDRLIEVAKKSLENAKL | not failed
MLRYLALSEAGIAKLPRPQSRCYHSEKGVWGYKPIAQREFQVAEDVRASRNSQANVYRFVEAFRQHGHKLAAVNPISIRTSQQELQELSPAFYGLQTQEPVRTDGLLSGPQVAHNVAQLEQLLKDIYCGRSTSAEFSYVEDIEEREWLARNFETLDQQQLGKSERCEIAELLIKSQAWDNFMALKFPTVKRYGGEGAESMLAFFWQLLRDSVQANIEHVVLAMPHRGRTPLQAALLNMRPAKVFRKLSGASEFSEDIEAMSDVISHFHVSEQLKILGKKLSFSMVRNPSHLEAANPVAMGKTRSKQQARGEGAFGDGSQPFGEHVLNVILHGDAAFAGQGINQECLNMAYVPHFEVGGSLHLIVNNQVGFTTPGDRGRSTAYTSDLAKSIQAPVFHVNGDDPEALARVTSLAFRYQREFRKDIFIDLNCFRRWGHNELDDPTFTNPLVYKIVHQRESVPDLYAQQLAKEQVLSESKAKEMRDEYMKYLGEELALAPAYQPPPSYFEKQWTNFQLAPSKELTYWDTGLDYSLLHYIGQQSVTFPEDFNIHPHLLKTHVNARLKKLENGVKIDWSTAEALAIGSLMYQGHNVRISGEDVGRGTFSHRHAMLVDQQTNEMFIPLNSMEGGNGGKLELAHSILSEEAVLGFEYGMAIDNPNNLIIWEAQFGDFANGAQIIIDTFIVSGETKWMESNALVMLLPHGYDGAASEHSSCRIERFLQLCDSKETSADGDSVNVHIVNPTTPAQYYHVLRRQLARNFRKPLVVVAPKTLLRLPAATSTHEDFQPGTLFHNVLGDTIAKPEQVRKVILCSGKHYYTLAEEREKRQAYDTAILRLESLCPFPIQELQAQLAQYGNVQSFVWSQEEHRNMGAWTFVRPRFENLIGQQLHYCGRCEAPTPATGIGKVHKREVDEIVAAPFEL | failed
MTLVRMTEKLLSPLHTRPWPERWLTRVLGAALASAAYLLCLPWDLNNRAPSPGAVEETTPVTGVGVVALAVILLALAAYFGHRDSLGWPVLLVAVPPAALLYVSLRTHPGPPDGFAGVWPLVWGFFTLLIGVGVLVAAAVAREFRADLVDEELSLAHRR | failed
NKSYRSTEQITNFAKALLPDGDQIQAFTRKGDLPKVMIRYGEDAALSSLRSEVEHQLKATNTVAVLTKDLAESKQVYQYLKRYTVTTLMADSDRTMPQGVIVMPIYLAKGLEFDAVVAYDVSATNYPDADSVGILYTIASRAMHHLTLLSIGDVSPLIAQLDPTLFTIEHQVRV | not failed
MKRFVLFLLFMCVCVQAYAEQDYFFRDFKSRDLPQKLHLDKKLSQTIQPCMQLNASKHYTSTGVREPDKCTKSFKKSALMSYDLALGYLVSKNKQYGLKAIEILNAWAKELQSVDTYQSEDNINFYMPYMNMAYWFVKKAFPSPEYEDFIKRMRQYSQSALNTNHGAWGILFDVSSALALDDNALLHNSANRWQEWVFKAIDENGVIASAITRSDTSDYHGGPTKGIKGIAYTNFALLALTISGELLFENGYDLWGSGAGKRLSVAYNKVATWILNPETFPYFQPNLIGVHNNAYFIILAKHYSSPSANELLKQGDLHEDGFRLKLRSP | failed
DDRQEEKMIKENVYFDGNVKSLGFSQQDGESTVGVMAPGQYTFGTGAPERMTVVKGALTIKRVTDADWVTFTAGEAFEVAGNSSFDLQVEVATAYLCEFL | failed
MRGGSLWQLGQSITRRLAQSDKKVVSRRYFASEADLKKTALYDFHVAHGGKMVPFAGWSMPIQYKDSIMDSTVNCRENGSLFDVAHMCGLSLKGKDCVPFLETLVVADVAGLAPGTGSLTVFTNEKGGAIDDSVITKVTDEHIYLVVNAGCRDKDLAHIEEHMKAFKSKGGDVSWHIHDERSLLALQGPLAAPVLQHLTKEDLSKLYFGNFQILDINGSTCFLTRTGYTGEDGFEISVPDEHAVDLAKAILEKSEGKVRLTGLGARDSLRLEAGLCLYGNDMEQHISPVEAGLTWAIGKRRRAEGGFLGADVILQQLKDGPTIRRVGFFSSGPPARSHSEVHDESGNKIGEITSGGFSPNLKKNIAMGYVKSGQHKTGTKVKILVRGKPYEGSITKMPFVATKYYKPT | failed
MNNENMVRVFYVLLMGLGFPIMRFMSIHFETLNNNSVRFLSGGSLFVIICLIKFRSELKKIIGEPKIILYLFIYLFILGIFMTGNMFFFINGLKYTSALAGSIFGILAMPLAIIIAGIFFKDERDRIRQKEFYIGELLAIIGSLIFVINSSNNDGNTDFFLGAIFLFTAIFIQSVQNLIVKKVAKKINAVVISASTATISGVLFLCLAFNTKQIYLLQDVGIGMLIGLVCAGFYGMLTGMLMAFYIVQKQGITVFNILQLLIPLSTAIIGYLTLDERINIYQGISGIIVIIGCVLALKRKNKEC | failed
